T1: TCF/Pangolin HMG + C-clamp fragment (UniProt P91943 273-400)
T1 sequence: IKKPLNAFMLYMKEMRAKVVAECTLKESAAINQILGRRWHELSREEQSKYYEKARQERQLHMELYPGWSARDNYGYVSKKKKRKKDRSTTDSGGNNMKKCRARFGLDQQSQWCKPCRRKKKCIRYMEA


Biological target: T1, TCF/Pangolin HMG + C-clamp fragment
Test: competition EMSA; labeled AK6 probe; 10 mM Tris-HCl pH 7.5, 50 mM KCl, 1 mM DTT, 50 mM MgCl2 (so in the source), 0.05% NP40, 3.5% glycerol, 50 ug/ml poly(dIdC); 6 pmol protein, 0-2.4 pmol competitor, 20
Settings: protein: recombinant, tags: His (pET52b(+), XmaI/SacI), blunt

Row | Binder | IC50 (printed reverse strand is mismatched at its last 2 nt (atcgac vs atcgta)) | IC50
1 | AK6 competitor (dsDNA) DNA 1: TACGATAAGATCAAAGGTGCAGTGCCGCCAGTCGTA DNA 2: TACGACTGGCGGCACTGCACCTTTGATCTTATCGAC | 5.1 nM | –
2 | FF0 competitor (dsDNA) DNA 1: TGGTACGATCCTTTGATCTTGCCGCCAGTCGTACAC DNA 2: GTGTACGACTGGCGGCAAGATCAAAGGATCGTACCA | – | 9.4 nM
3 | KK6 competitor (dsDNA) DNA 1: TACGATCCTTTGATCTTTGCAGTTGGCGGCGTCGTA DNA 2: TACGACGCCGCCAACTGCAAAGATCAAAGGATCGTA | – | 99.7 nM
4 | RW0 competitor (dsDNA) DNA 1: TGGTACGATAAGATCAAAGGTGGCGGCGTCGTACAC DNA 2: GTGTACGACGCCGCCACCTTTGATCTTATCGTACCA | – | 189 nM
